Here are results for four substances from PMC9119168.

MERS-CoV Mac1, His-tagged (domain or fragment), sequence (K9N638 1110-1276 limits assumed): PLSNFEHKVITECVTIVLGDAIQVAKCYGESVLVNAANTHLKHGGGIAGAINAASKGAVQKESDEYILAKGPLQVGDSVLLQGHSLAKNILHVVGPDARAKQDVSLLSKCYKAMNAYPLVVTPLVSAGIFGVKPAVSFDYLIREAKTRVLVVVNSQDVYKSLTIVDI

The target of the experiment is 10 amino acid biotinylated and ADP-ribosylated peptide [ARTK(Bio)QTARK (Aoa-RADP)S]. Nature of the experiment: AlphaScreen or HTRF.
Turning to “MERS-CoV Mac1, His-tagged (domain or fragment)”, the macrodomain concentration at the maximum AS signal lay in the range of 1.25 to 2.5 µM.

As for “SARS-CoV Mac1, His-tagged (domain or fragment)”, the macrodomain concentration at the maximum AS signal was in the range of 1.25 to 2.5 µM.

“SARS-CoV-2 Mac1 (conserved macrodomain of non-structural protein 3), His-tagged (from UniProt P0DTD1) (domain or fragment)”: the macrodomain concentration at the maximum AS signal was found to be 0.625 µM.

Substance “human macrodomain Mdo2, His-tagged (domain or fragment)” had a macrodomain concentration at the maximum AS signal of 0.04 µM.
